Test results from PMC9985635.

Target: p65 (UniProt Q04206)
Test: co-immunoprecipitation, immunoblot
Conditions: reference: wild-type RB; sites S249,T252

binding against the reference: weaker
Substance: RB (retinoblastoma protein) (from UniProt P06400) RB S249A/T252A
